Data reported in paper PMC11797550.

Key:
[1] = target: IGF-2-like, endogenous in the larval fat body; assay: Co-IP (anti-IDE antibody) with western blot band quantification; settings: fat body of larvae; 10% gel in SDS-PAGE; three replicates; parent: est. 0.18; read off a plot
[2] = target: USP1 (ultraspiracle), endogenous in the larval fat body; assay: as above; settings: fat body of larvae; 10% gel in SDS-PAGE; three replicates; parent: est. 0.49; read off a plot

IDE, wild type, endogenous in the larval fat body K179R
response (IGF-2-like/ACTB) [1]: 0.46 | response [2]: 0.16 USP1/ACTB
